Laboratory results from patent US20030148973A1, “MAGE-A1 peptides for treating or preventing cancer” (priority 2001, published 2003).

Target: HLA-A0201 molecules on the surface of T2 cells
Experiment: T2 cell HLA-A0201 stabilization; 20 µg peptide on 10^6 acid-stripped T2 cells, BB7.2 staining, flow cytometry
Details: remark: other sources report otherwise

Fluorescence Index (FI): 1.73 FI
B1: MAGE-A1 174 (peptide)
peptide: CLGLSYDGL
